Measurements published in patent US20060216692, “Switchable nucleic acids for diagnostics, screening and molecular electronics” (published 2006).

T1: NCp7 (nucleocapsid protein, Zn2.NCp7(1-55)) (HIV-1, UniProt P35962 SEQ:1-55)
T1 chain: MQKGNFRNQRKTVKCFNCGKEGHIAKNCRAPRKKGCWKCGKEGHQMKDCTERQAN


How the values were obtained:
[1] = target: NCp7 (nucleocapsid protein, Zn2.NCp7(1-55)) (HIV-1) (UniProt P35962); conditions: Trp assay; virtually identical Kd to 20mer
[2] = target: T1, NCp7 (nucleocapsid protein, …); experiment: Trp37 quenching, 0.2 M NaCl; equivalent of three NCp7 bound with high affinity per RNA; conditions: about 3 per 154mer); SL1-SL4 stem-loops

| Molecule | binding signal (fold of SL3 20mer) [1] | binding result [2] |
| --- | --- | --- |
| SL3 16mer | 1 | – |
| 154mer packaging domain (ssRNA) RNA: GGAGCUCUCUCGACGCAGGACUCGGCUUGCUGAAGCGCGCACGGCAAGAGGCGAGGGGCGGCGACUGGUGAGUACGCCAAAAAUUUUGACUAGCGGAGGCUAGAAGGAGAGAGAUGGGUGCGAGAGCGUCAGUAUUAAGCGGGGGAGAAUUAGA | – | binds |
